Paper PMC8847575, “HSL1 and BAM1/2 impact epidermal cell development by sensing distinct signaling peptides” (Nature Communications, 2022)
Square brackets hold non-standard residues; d marks the D form. Ends that are not written are not given here. Hyp = O=C(O)[C@@H]1C[C@@H](O)CN1

How the values were obtained:
[1] = target: T1, HSL1 (HAESA-LIKE 1) ectodomain (Arabidopsis, UniProt Q9SGP2 17-618); assay: ITC
T1 chain: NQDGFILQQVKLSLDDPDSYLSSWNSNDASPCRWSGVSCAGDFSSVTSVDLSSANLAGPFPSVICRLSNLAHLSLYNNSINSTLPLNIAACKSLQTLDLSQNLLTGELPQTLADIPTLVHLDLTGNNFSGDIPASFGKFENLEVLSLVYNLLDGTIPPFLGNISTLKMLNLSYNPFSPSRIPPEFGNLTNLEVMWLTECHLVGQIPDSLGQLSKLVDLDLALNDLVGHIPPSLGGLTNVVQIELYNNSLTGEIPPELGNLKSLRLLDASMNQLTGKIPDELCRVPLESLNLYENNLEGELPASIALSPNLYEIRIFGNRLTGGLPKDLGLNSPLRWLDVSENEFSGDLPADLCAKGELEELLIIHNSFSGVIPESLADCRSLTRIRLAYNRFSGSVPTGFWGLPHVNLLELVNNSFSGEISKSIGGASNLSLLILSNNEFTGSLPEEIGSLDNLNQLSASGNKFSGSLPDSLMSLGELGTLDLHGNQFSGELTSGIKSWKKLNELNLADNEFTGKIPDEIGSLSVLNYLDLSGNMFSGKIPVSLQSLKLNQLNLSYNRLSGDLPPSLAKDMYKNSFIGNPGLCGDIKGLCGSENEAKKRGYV

[2] = target: T2, HSL1 (HAESA-LIKE 1) ectodomain (Arabidopsis, UniProt Q9SGP2 17-618); assay: ITC; peptide (75 to 600 µM) injected into 10 to 30 µM HSL1 or BAM1 ectodomain in the cell; 25 °C; 20 mM sodium citrate pH 5.0, 150 mM NaCl; N fitted to 1; settings: both partners purified
T2 construct: HSL1 LRR receptor kinase ectodomain, Arabidopsis, residues 17-618, AT1G28440; codon optimised; secreted with an azurocidin or Drosophila BiP signal peptide; also called isolated HSL1 ectodomain; LRR-RK HSL1; source: Trichoplusia ni Tnao38 cells (baculovirus), secreted, purified (Ni2+, Strep-Tactin, TEV cleavage, second Ni2+, SEC)
T2 sequence (looked up): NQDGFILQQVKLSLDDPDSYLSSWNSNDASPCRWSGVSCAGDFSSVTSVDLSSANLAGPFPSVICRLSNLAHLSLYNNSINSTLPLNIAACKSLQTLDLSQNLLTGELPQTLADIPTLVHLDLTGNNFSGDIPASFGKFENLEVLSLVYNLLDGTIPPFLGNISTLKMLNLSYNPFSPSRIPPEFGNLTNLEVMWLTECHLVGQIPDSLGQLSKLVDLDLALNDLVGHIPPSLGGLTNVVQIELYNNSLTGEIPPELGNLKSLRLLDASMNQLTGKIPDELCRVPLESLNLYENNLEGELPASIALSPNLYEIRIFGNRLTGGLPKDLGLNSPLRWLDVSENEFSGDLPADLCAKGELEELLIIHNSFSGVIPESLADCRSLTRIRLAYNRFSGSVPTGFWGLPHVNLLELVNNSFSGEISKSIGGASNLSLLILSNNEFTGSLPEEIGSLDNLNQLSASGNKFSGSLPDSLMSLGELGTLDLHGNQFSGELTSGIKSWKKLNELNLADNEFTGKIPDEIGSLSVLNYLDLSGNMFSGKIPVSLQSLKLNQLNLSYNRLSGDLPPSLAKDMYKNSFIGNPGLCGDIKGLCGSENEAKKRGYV

[3] = target: T3, SERK1 (SOMATIC EMBRYOGENESIS RECEPTOR KINASE 1) ectodomain (Arabidopsis, UniProt Q94AG2 24-213); assay: crystal structure; HSL1-CLE9-SERK1, mixed 1:1:1.5; 0.2 M K/Na tartrate, 20% PEG 3350; 2.87 Å; settings: both partners purified
T3 construct: SERK1 ectodomain, Arabidopsis, residues 24-213, AT1G71830; codon optimised; secreted with an azurocidin or Drosophila BiP signal peptide; also called co-receptor SERK1; source: Trichoplusia ni Tnao38 cells (baculovirus), secreted, purified (Ni2+, Strep-Tactin, TEV cleavage, second Ni2+, SEC)
T3 sequence (looked up): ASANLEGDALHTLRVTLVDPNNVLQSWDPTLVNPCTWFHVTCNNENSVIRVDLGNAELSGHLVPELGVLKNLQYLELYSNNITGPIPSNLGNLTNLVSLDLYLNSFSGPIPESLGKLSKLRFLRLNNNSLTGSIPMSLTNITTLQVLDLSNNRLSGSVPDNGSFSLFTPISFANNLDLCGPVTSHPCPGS

[4] = target: T4, BAM1 (BARELY ANY MERISTEM 1) ectodomain (Arabidopsis, UniProt O49545 20-637); assay: ITC; peptide (75 to 600 µM) injected into 10 to 30 µM HSL1 or BAM1 ectodomain in the cell; 25 °C; 20 mM sodium citrate pH 5.0, 150 mM NaCl; N fitted to 1; settings: both partners purified
T4 construct: BAM1 LRR receptor kinase ectodomain, Arabidopsis, residues 20-637, AT5G65700; codon optimised; secreted with an azurocidin or Drosophila BiP signal peptide; also called BAM1 extracellular domain; BAM1 LRR ectodomain; source: Trichoplusia ni Tnao38 cells (baculovirus), secreted, purified (Ni2+, Strep-Tactin, TEV cleavage, second Ni2+, SEC)
T4 sequence (looked up): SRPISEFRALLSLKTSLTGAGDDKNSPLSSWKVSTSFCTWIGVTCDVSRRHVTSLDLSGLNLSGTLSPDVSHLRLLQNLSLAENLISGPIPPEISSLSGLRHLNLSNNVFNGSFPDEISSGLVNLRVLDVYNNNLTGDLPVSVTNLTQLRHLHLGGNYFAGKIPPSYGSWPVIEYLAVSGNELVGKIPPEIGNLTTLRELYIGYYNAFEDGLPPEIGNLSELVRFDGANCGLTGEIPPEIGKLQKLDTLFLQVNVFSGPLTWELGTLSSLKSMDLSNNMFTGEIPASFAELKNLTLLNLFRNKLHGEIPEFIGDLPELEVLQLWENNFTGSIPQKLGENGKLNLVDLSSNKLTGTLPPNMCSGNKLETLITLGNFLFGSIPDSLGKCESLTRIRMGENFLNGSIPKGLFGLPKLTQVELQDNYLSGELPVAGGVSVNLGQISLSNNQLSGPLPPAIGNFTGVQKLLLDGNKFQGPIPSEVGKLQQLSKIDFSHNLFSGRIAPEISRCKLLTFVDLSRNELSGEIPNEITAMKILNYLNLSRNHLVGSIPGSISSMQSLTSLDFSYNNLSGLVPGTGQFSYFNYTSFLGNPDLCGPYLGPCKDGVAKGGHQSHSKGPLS

[5] = target: T1, HSL1 (HAESA-LIKE 1) ectodomain; assay: ITC; with IDA
[6] = target: T1, HSL1 (HAESA-LIKE 1) ectodomain; assay: ITC; with IDL1
[7] = target: T1, HSL1 (HAESA-LIKE 1) ectodomain; assay: ITC; with IDL2
[8] = target: T1, HSL1 (HAESA-LIKE 1) ectodomain; assay: ITC; with IDL3
[9] = target: T1, HSL1 (HAESA-LIKE 1) ectodomain; assay: ITC; with IDL4
[10] = target: T5, biotinylated HSL1 ectodomain with Avi-tag (Arabidopsis, UniProt Q9SGP2 17-618, biotin on the Avi-tag (BirA)); assay: GCI, with IDA
T5 chain: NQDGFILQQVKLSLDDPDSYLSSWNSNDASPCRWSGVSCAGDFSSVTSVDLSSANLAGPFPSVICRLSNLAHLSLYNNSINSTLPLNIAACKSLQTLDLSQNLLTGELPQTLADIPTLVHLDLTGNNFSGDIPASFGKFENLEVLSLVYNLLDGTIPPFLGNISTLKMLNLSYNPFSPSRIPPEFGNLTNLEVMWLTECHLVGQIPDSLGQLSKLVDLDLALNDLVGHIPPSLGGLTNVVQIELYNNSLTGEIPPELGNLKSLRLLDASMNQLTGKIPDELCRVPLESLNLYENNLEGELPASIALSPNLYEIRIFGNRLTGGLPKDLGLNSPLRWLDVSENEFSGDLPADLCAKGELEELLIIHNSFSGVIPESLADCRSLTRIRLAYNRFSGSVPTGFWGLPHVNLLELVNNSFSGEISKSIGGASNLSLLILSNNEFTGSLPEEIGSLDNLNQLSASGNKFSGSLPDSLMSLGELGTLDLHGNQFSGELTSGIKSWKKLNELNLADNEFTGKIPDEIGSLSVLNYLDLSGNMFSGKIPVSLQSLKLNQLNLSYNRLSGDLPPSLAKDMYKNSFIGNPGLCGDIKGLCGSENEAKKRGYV

[11] = target: T1, HSL1 (HAESA-LIKE 1) ectodomain; assay: ITC; with CLE9^N116S
[12] = target: T5, biotinylated HSL1 ectodomain with …; assay: GCI, with IDL1
[13] = target: T5, biotinylated HSL1 ectodomain with …; assay: GCI, with IDL2
[14] = target: T5, biotinylated HSL1 ectodomain with …; assay: GCI, with IDL3
[15] = target: T5, biotinylated HSL1 ectodomain with …; assay: GCI, with IDL4
[16] = target: T5, biotinylated HSL1 ectodomain with …; assay: GCI, with IDL1
[17] = target: T5, biotinylated HSL1 ectodomain with …; assay: GCI, with IDL3
[18] = target: T5, biotinylated HSL1 ectodomain with …; assay: in presence of IDL1
[19] = target: T5, biotinylated HSL1 ectodomain with …; assay: in presence of IDL2
[20] = target: T5, biotinylated HSL1 ectodomain with …; assay: in presence of IDL3
[21] = target: T5, biotinylated HSL1 ectodomain with …; assay: in presence of IDL4
[22] = target: T5, biotinylated HSL1 ectodomain with …; assay: in presence of IDL1
[23] = target: T5, biotinylated HSL1 ectodomain with …; assay: in presence of IDL2
[24] = target: T5, biotinylated HSL1 ectodomain with …; assay: in presence of IDL3
[25] = target: T5, biotinylated HSL1 ectodomain with …; assay: in presence of IDL4

B1: CLE9^N116S peptide (peptide, UniProt Q9FZE4 109-120, looked up)
peptide: RLVPSGPSPLHN
notes: CLE9 mature dodecapeptide with Asn116 changed to Ser; also called Asn116^CLE9 to a Ser
Q: What does the source list for B1?
A: Kd [1]: 7150 nM; binding result [2]: binds

B2: CLE9 mature peptide (peptide, UniProt Q9FZE4 109-120, looked up)
peptide: RLV[Hyp]SG[Hyp]NPLHN
notes: CLE9 mature dodecapeptide, AT1G26600; printed residues R109, L110, V111, Hyp112, Ser113, Hyp115, Asn116; also called wild-type CLE9 peptide
Q: What does the source list for B2?
A: binding result [3]: binds; Kd [4]: 100 nM

B3: SERK1 (SOMATIC EMBRYOGENESIS RECEPTOR KINASE 1) ectodomain (domain or fragment)
chain: ASANLEGDALHTLRVTLVDPNNVLQSWDPTLVNPCTWFHVTCNNENSVIRVDLGNAELSGHLVPELGVLKNLQYLELYSNNITGPIPSNLGNLTNLVSLDLYLNSFSGPIPESLGKLSKLRFLRLNNNSLTGSIPMSLTNITTLQVLDLSNNRLSGSVPDNGSFSLFTPISFANNLDLCGPVTSHPCPGS
Q: What does the source list for B3?
A: Kd [5]: 22 nM; Kd [6]: 44 nM; Kd [7]: 16 nM; Kd [8]: 26 nM; Kd [9]: 49 nM; Kd [10]: 9 nM; Kd [11]: 170 nM; Kd [12]: 12.5 nM; Kd [13]: 9 nM; Kd [14]: 1 nM; Kd [15]: 12.5 nM; koff [16]: 0.00018 s⁻¹; koff [17]: 3e-05 s⁻¹; koff [18]: 0.00018 s⁻¹; koff [19]: 0.00011 s⁻¹; koff [20]: 0.00026 s⁻¹; koff [21]: 0.00013 s⁻¹; Kd [22]: 12.5 nM; Kd [23]: 1.5 nM; Kd [24]: 8.5 nM; Kd [25]: 10.7 nM
